The chains are these.
B1: Autophagy-related protein 2 homolog A (Homo sapiens), Q2TAZ0 (parent)
chain: MSRWLWPWSNCVKERVCRYLLHHYLGHFFQEHLSLDQLSLDLYKGSVALRDIHLEIWSVNEVLESMESPLELVEGFVGSIEVAVPWAALLTDHCTVRVSGLQLTLQPRRGPAPGAADSQSWASCMTTSLQLAQECLRDGLPEPSEPPQPLEGLEMFAQTIETVLRRIKVTFLDTVVRVEHSPGDGERGVAVEVRVQRLEYCDEAVRDPSQAPPVDVHQPPAFLHKLLQLAGVRLHYEELPAQEEPPEPPLQIGSCSGYMELMVKLKQNEAFPGPKLEVAGQLGSLHLLLTPRQLQQLQELLSAVSLTDHEGLADKLNKSRPLGAEDLWLIEQDLNQQLQAGAVAEPLSPDPLTNPLLNLDNTDLFFSMAGLTSSVASALSELSLSDVDLASSVRSDMASRRLSAQAHPAGKMAPNPLLDTMRPDSLLKMTLGGVTLTLLQTSAPSSGPPDLATHFFTEFDATKDGPFGSRDFHHLRPRFQRACPCSHVRLTGTAVQLSWELRTGSRGRRTTSMEVHFGQLEVLECLWPRGTSEPEYTEILTFPGTLGSQASARPCAHLRHTQILRRVPKSRPRRSVACHCHSELALDLANFQADVELGALDRLAALLRLATVPAEPPAGLLTEPLPAMEQQTVFRLSAPRATLRLRFPIADLRPEPDPWAGQAVRAEQLRLELSEPQFRSELSSGPGPPVPTHLELTCSDLHGIYEDGGKPPVPCLRVSKALDPKSTGRKYFLPQVVVTVNPQSSSTQWEVAPEKGEELELSVESPCELREPEPSPFSSKRTMYETEEMVIPGDPEEMRTFQSRTLALSRCSLEVILPSVHIFLPSKEVYESIYNRINNDLLMWEPADLLPTPDPAAQPSGFPGPSGFWHDSFKMCKSAFKLANCFDLTPDSDSDDEDAHFFSVGASGGPQAAAPEAPSLHLQSTFSTLVTVLKGRITALCETKDEGGKRLEAVHGELVLDMEHGTLFSVSQYCGQPGLGYFCLEAEKATLYHRAAVDDYPLPSHLDLPSFAPPAQLAPTIYPSEEGVTERGASGRKGQGRGPHMLSTAVRIHLDPHKNVKEFLVTLRLHKATLRHYMALPEQSWHSQLLEFLDVLDDPVLGYLPPTVITILHTHLFSCSVDYRPLYLPVRVLITAETFTLSSNIIMDTSTFLLRFILDDSALYLSDKCEVETLDLRRDYVCVLDVDLLELVIKTWKGSTEGKLSQPLFELRCSNNVVHVHSCADSCALLVNLLQYVMSTGDLHPPPRPPSPTEIAGQKLSESPASLPSCPPVETALINQRDLADALLDTERSLRELAQPSGGHLPQASPISVYLFPGERSGAPPPSPPVGGPAGSLGSCSEEKEDEREEEGDGDTLDSDEFCILDAPGLGIPPRDGEPVVTQLHPGPIVVRDGYFSRPIGSTDLLRAPAHFPVPSTRVVLREVSLVWHLYGGRDFGPHPGHRARTGLSGPRSSPSRCSGPNRPQNSWRTQGGSGRQHHVLMEIQLSKVSFQHEVYPAEPATGPAAPSQELEERPLSRQVFIVQELEVRDRLASSQINKFLYLHTSERMPRRAHSNMLTIKALHVAPTTNLGGPECCLRVSLMPLRLNVDQDALFFLKDFFTSLVAGINPVVPGETSAEARPETRAQPSSPLEGQAEGVETTGSQEAPGGGHSPSPPDQQPIYFREFRFTSEVPIWLDYHGKHVTMDQVGTFAGLLIGLAQLNCSELKLKRLCCRHGLLGVDKVLGYALNEWLQDIRKNQLPGLLGGVGPMHSVVQLFQGFRDLLWLPIEQYRKDGRLMRGLQRGAASFGSSTASAALELSNRLVQAIQATAETVYDILSPAAPVSRSLQDKRSARRLRRGQQPADLREGVAKAYDTVREGILDTAQTICDVASRGHEQKGLTGAVGGVIRQLPPTVVKPLILATEATSSLLGGMRNQIVPDAHKDHALKWRSDSAQD
partner: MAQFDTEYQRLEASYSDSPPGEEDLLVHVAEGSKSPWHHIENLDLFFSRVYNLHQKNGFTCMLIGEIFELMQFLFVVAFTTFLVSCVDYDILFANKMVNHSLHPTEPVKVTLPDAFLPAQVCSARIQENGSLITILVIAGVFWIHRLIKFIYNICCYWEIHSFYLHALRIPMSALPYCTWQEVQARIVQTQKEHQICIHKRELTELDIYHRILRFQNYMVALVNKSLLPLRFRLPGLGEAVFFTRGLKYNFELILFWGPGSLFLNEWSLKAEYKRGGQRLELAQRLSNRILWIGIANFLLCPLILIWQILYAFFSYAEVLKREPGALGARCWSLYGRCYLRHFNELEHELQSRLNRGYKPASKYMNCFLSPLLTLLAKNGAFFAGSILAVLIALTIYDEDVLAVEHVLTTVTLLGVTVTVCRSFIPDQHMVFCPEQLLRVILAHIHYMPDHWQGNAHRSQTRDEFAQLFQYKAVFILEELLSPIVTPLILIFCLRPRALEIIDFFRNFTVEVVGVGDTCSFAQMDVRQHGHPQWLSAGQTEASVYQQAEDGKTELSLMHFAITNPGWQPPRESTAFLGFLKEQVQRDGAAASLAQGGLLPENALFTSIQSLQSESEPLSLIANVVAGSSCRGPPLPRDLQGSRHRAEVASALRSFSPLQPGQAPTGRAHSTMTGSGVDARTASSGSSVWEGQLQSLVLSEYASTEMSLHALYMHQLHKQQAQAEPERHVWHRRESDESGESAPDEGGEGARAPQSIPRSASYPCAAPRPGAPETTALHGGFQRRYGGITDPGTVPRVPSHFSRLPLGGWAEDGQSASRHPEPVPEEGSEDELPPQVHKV
B2: Autophagy-related protein 2 homolog A (Homo sapiens), Q2TAZ0 (parent)
chain: B1 chain
partner: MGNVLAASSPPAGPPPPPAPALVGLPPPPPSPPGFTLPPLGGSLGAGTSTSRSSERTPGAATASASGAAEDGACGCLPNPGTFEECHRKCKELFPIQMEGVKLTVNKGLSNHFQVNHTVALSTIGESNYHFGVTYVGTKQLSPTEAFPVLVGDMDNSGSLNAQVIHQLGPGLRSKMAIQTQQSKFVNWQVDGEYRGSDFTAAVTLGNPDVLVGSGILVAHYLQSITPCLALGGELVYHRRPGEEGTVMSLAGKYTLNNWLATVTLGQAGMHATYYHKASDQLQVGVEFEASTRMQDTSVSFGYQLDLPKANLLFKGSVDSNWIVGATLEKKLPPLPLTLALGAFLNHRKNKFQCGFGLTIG

The first assay covers variants of B1. The following applies: with atg9a_human ATG9A.
As to Y1395A;F1396A;S1397A, the “effect of a mutation on the interaction” value was “disrupting interaction strength”.

Variants of B2 are the subject of the next assay. To be noted: with tom40_human TOMM40, O96008.
As for L1798A;L1800A;L1804A, the “effect of a mutation on the interaction” value is given as “disrupting interaction strength”.
Same read-out and setting: for R1777A;R1780A;R1784A the value was “decreasing interaction strength”.
R1777A;R1780A;R1784A;L1798A;L1800A;L1804A: the “effect of a mutation on the interaction” value is reported as “decreasing interaction strength”.

Values taken from IntAct's records for PubMed 31412244.
